Data on eight compounds can be found in patent EP0714402B9, “POLYMER MODIFICATION” (PolyMASC Pharmaceuticals plc, priority 1993, dated 1995).

The nature of series [1]: blood clearance after subcutaneous injection with [125I]GM-CSF tracer. The class given is in vivo, BALB/c, male, 6-8 week-old mice. Conditions: late clearing component; for fold increase of t1/2 over the control figure: figures in parentheses; for t1/2: subcutaneous, […] body weight, mice. On the procedure: BALB/c, male, 6-8 week-old mice, weighing approximately 20g, were pooled into groups of three per condition, with adlib access to food and water. The reaction products were evaluated by FPLC and the proportions of individual species were estimated by fitting summated Gaussian curves to the FPLC profiles and estimating the area under the curve corresponding to each individual peak and expressing this as a % of the total area for the whole FPLC profile (Table 4b). The inventors have previously established that the individual peaks seen at low TMPEG concentrations (peaks 0, 1, 2 and 3) correspond to GM-CSF, PEG1-GM-CSF, PEG2-GM-CSF, PEG3-GM-CSF, respectively. At high TMPEG concentrations the peaks are broader and less well resolved thus fitting of individual Gaussian curves over all regions of the FPLC profile may not be possible. Thus peak 3 and the peaks for more highly substituted GM-CSF (potentially PEG4-7-GM-CSF) have been pooled. The peak eluting with the void volume peak is well resolved from the PEG4-7-GM-CSF and presumably represents aggregates, the area of this peak was used to estimate the proportion of aggregated material (Table 4b).
The different PEGylated samples and unmodified GM-CSF (Hoechst), all containing <4% [^125I]GM-CSF (Amersham, 1222 Ci/mmol) to serve as a tracer, were adminstrated at a dose of 0.0524µg in 100µl (3.45 x 10^-12 mole; equivalent to 2.5µg/kg body weight) by subcutaneous injection. The amount of TMPEG concomitantly administered is also indicated in Table 4a (MPEG has been shown not to influence t1/2, but does influence egress from the subcutaneous site). Up to eight 25µl tail vein blood samples were collected from each mouse using capillary tubes at various time points ranging between 10 minutes and 80 hours, to give a minimum of three samples per time point. Samples from the capillary tubes were washed immediately into 1ml of PBS containing 50 I.U. of heparin. Radioactivity was determined using a gamma counter (LKB 1270 Rackgamma) results being shown in Fig. 6a (open circles for untreated material, other symbols as indicated on the figure). Clearances for the materials of reactions A and B were clearly biphasic, presumably reflecting the large proportion of unmodified material remaining in these preparations (Table 4b). Half-lives were calculated using linear regression (log concentration versus time) for the slower clearing component if biphasic elimination was present (solid lines Figure 6a; dotted lines give the 95% confidence intervals).

A short description of series [2]: tissue distribution, organ:blood concentration ratios. Conditions: organ:blood concentration ratios versus GM-CSF, Fig.6b. The class given is in vivo, mice. The protocol: In order to establish the contributions to extended t1/2 we examined the tissue distribution of material prepared in an identical manner to reaction C, using an identical dose. At each of the times indicated, one aminal was sacrificed and organs/tissue including kidney, spleen, liver, lung, heart and femur were recovered and radioactivity was measured as above. […] The dotted and dashed lines indicate the blood levels of GM-CSF and PEG-GM-CSF respectively. The filled circles and open circles are the organ concentrations of PEG-GM-CSF and GM-CSF respectively. […] This is somewhat surprising since circa 24% of the reaction C mixture represents PEG1-GM-CSF (i.e. material below the renal threshold). […] Thus the degree of substitution desirable for individual targets will have to be assessed on a case-by-case basis. Table 4(A)

In series [3] the test system is granulocyte-macrophage colony. Kind of series: granulocyte-macrophage colony assay (CFUgm) of GM-CSF growth stimulating activity. In kind it is cell-based. Conditions: versus comparable amounts of unmodified GM-CSF, 0.1 to 8 ng/ml, Fig.3a. The source says:
(§1) A better approach is to perform a correlation analysis, plotting the response obtained with equivalent amounts of the modified and unmodified materials on an XY plot. Identical activity gives datum points randomly distributed about the line representing equal activity (the dashed lines). […] In contrast, the presence of inhibitory material, with or without loss of intrinsic activity, produces a departure, usually without convergence to the upper extremity.
(§2) Datum points are means of colony counts in triplicate dishes for three independent experiments (Fig. 3a) or of two independent thymidine uptake experiments (Fig 3b).

Series [4] is described as follows: 3H-thymidine uptake assay of GM-CSF growth stimulating activity. The following applies: versus comparable amounts of unmodified GM-CSF, 0.0006 to 1.0ng/ml, Fig.3b. In kind it is cell-based.
Excerpt: as §1, §2

Series [5] can be described thus: degradation of 125I-GM-CSF on storage at 4°C, FPLC profiles. In kind it is physicochemical. Conditions: for relative amount of 125I, Peak 1: high molecular weight; for relative amount of 125I, Peak 2: intermediate fragments; for relative amount of 125I, Peak 3: low molecular weight. The source says: This process is slowed by PEG modification. […] When supplied, ^125I-GM-CSF has little or no low molecular weight labelled species. […] There has been generation of intermediate and low molecular weight fragments in both samples. The former are commensurate in size with proteolytic cleavage products and the latter either with free iodine or very small fragments (i.e. < circa 1kDa). Pegylation reduces the loss of high molecular weight species.

Series [6] can be described thus: partition of amphotericin in dextran/PEG biphasic system. The class given is physicochemical. The following applies: 5% dextran T-500, 5% PEG-6000, pH 6.8, absorbance at 330 nm.

“Reaction C: PEG-modified GM-CSF preparation, GM-CSF 0.524 µg/ml reacted with TMPEG 197.5 mg/ml”: in series [1], the “fold increase of t1/2 over the control figure” value (“fold increase” for short) is 10.3 fold and the t1/2 worked out at 16.8 h. Moreover, the renal accumulation entry in series [2] is reported as “substantially reduced”.

Take “Reaction B: PEG-modified GM-CSF preparation, GM-CSF 0.524 µg/ml reacted with TMPEG 19.75 mg/ml”: in series [1], the “fold increase” value is 11.1 fold and the t1/2 was 18.1 h.

Take “gm-CSF PEGylated using the process of Example 1: gm-CSF coupled with TMPEG made by the process of the invention”: the “growth stimulating activity as assessed by granulocyte-macrophage colony assay” value in series [3] is “no significant loss”. For the same compound, the “growth stimulating activity as assessed by thymidine uptake” value in series [4] is “no significant loss”.

Take “Reaction D: PEG-modified GM-CSF preparation, GM-CSF 0.524 µg/ml reacted with TMPEG 459.7 mg/ml; contains >50% of aggregates”: in series [1], the “fold increase” value is on record as 15.3 fold and the t1/2 was determined as 25.1 h.

Consider “PEG-CM-CSF: 125I-GM-CSF exposed to TMPEG at a molar ratio of 305:1”, for which, in series [5] (After 1 Month Storage at 4°C), the “relative amount of 125I, Peak 1” value was 45.8; the “relative amount of 125I, Peak 2” value is on record as 8.9; the “relative amount of 125I, Peak 3” value was 36.3. In series [5] (Before Storage), the “relative amount of 125I, Peak 1” value was 81.1; the “relative amount of 125I, Peak 2” value turned out to be 0; the “relative amount of 125I, Peak 3” value is 12.4.

Regarding “Reaction A: PEG-modified GM-CSF preparation, GM-CSF 0.524 µg/ml reacted with TMPEG 6.46 mg/ml”, in series [1], the “fold increase” value is on record as 7.2 fold and the t1/2 was 11.7 h.

With `C[C@@H]1[C@H](O)[C@@H](C)/C=C/C=C/C=C/C=C/C=C/C=C/C=C/[C@H](O[C@@H]2O[C@H](C)[C@@H](O)[C@H](N)[C@@H]2O)C[C@@H]2O[C@](O)(C[C@@H](O)C[C@@H](O)[C@H](O)CC[C@@H](O)C[C@@H](O)CC(=O)O[C@H]1C)C[C@H](O)[C@H]2C(=O)O` [control, amphotericin], the “% material in the top (PEG-rich) phase” value in series [6] is given as 4.9 ± 0.2%.

Turning to “Comparative Example 1: gm-CSF PEGylated with TMPEG made by a previously described method (WO90/04606, Example 1) [reference compound]”, in series [3], the “growth stimulating activity as assessed by granulocyte-macrophage colony assay” value was “additional inhibitory activity”. The “growth stimulating activity as assessed by thymidine uptake” value in series [4] is “loss of activity without significant inhibitory material”.
